Source: the supplement of paper PMC9170038

System: MS2 coat protein
Assay: apparent KD of MS2 coat protein; higher = weaker reporter binding
Conditions: Eterna round: R107
In short: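 The buffer was 100 mM Tris-HCl pH 7.5 with 80 mM KCl and 4 mM MgCl2, used without or with constant ligand. In it, RNA switches transcribed on-chip from Illumina sequencing clusters were titrated with SNAP-549-labelled MS2 coat protein in twofold steps from 0.7 or 1.5 nM to 3 µM. Apparent KD for each design is the median of its normalised cluster binding-curve fits.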

[1] = input ligand: theophylline 20 uM
[2] = input ligand: theophylline 2 mM
[3] = input ligand: tryptophan 2.4 mM

Sequence	apparent KD of MS2 coat protein (input ligand: arginine 13.2 mM)	apparent KD of MS2 coat protein [1]	apparent KD of MS2 coat protein [2]	apparent KD of MS2 coat protein (input ligand: none)	apparent KD of MS2 coat protein [3]
GUCCUCAUGACGGCCGCCACUACACAUGAGGAUCACCCAUGUAAUGAUCCCUUAAAUGAUAAUAGUAGGACCGGGUCACUGUAAG [Same State Typptophan B GF12]	119 nM	569 nM	743 nM	–	–
AUGCAUAGCCGAAGGAGCGCAAUAGAAUGACAUGAGGAUCACCCAUGUGUGUGAUGUGGAUUGCAGGUAGGUCGCGGAGUGGUAU [Exclusion - Arginine B (Freestyle 4)]	34.2 nM	52.6 nM	48.1 nM	37.7 nM	30.5 nM
ACCUCAUGUAGAAGGAGCGUCAGAAGCUACAGACAUGAGGAUCACCCAUGUUAGUUGAUCUGACAGGUAGGUCGCUACAGCAGGA [#23 Same State - Arginine B]	24.1 nM	43.9 nM	35.6 nM	32.3 nM	31.8 nM
GUGCGGUUUGAUGAUACCAGAUGUGGUGGGAACAUGAGGAUCACCCAUGUUGUGAAACAGGUCCCUUGGCAGCAUGAGUGAGCUU [TheoB-ms2@32-1]	97.3 nM	255 nM	290 nM	103 nM	55.5 nM
GGGCAAGAGGGAAGGAGCGUCGGCUGGGUAACAUGAGGAUCACCCAUGUAGCACAUGGUGUGGCAGGUAGGUCGCCCUCUGCCCU [SS-ArgB9]	71.1 nM	153 nM	133 nM	102 nM	103 nM
AAAAUAAAUAAAACGGGUAACAUGAAGGAUACCAGCCAGGAAACUGGCCCUUGGCAGCCUCUACAUGAGGAUCACCCAUGUCCCG [Mat - Same State Theophlline A - Mod of Eli - D14]	169 nM	142 nM	–	–	454 nM
CUCCGAGGCUAUACUAUCCGCCUCUGUGAUACCAGAAUACCUAUAUUCCCUUGGCAGCAUCACAUGAGGAUCACCCAUGUGCCAU [SSTheo A #13]	14.5 nM	16.8 nM	–	–	13.9 nM
UAUGCACAUGAGGAUCACCCAUGUAUGGAAGGAGCGGUGAAUAAACCAGGUAGGUCGCCAUGGUGAGGAUCAUCUAUGUAAUCGU [Exclusion - Arginine A (Freestyle 6)]	62.3 nM	125 nM	103 nM	93.2 nM	87.8 nM
GCACCAGGUACGGAUACCAGCUGCCACAGUUACAUGAGGAUCACCCAUGUGAAAACGUGUAGCCCUUGGCAGCUGUACCUGGUGC [SSThB NP+V+V2 #8 Same Structure]	198 nM	186 nM	14.6 nM	459 nM	398 nM
GGAUAUGGUGAAAGAGAGAAGAGAGAUGAUACCAGUAAGAGAAGAUGCCCUUGGCAGCAUAGAGACAUGAGGAUCACCCAUGUAA [solution]	12 nM	25.2 nM	24.3 nM	22.9 nM	15.6 nM
UUCAAAGGGAACGGUGCUGGUGACAGAGAUACCAGCGCGGUAACGCGCCCUUGGCAGCUCAGAACAUGAGGAUCACCCAUGUAAU [Exclusion Theophylline A GF23]	15.9 nM	20.7 nM	–	–	15.4 nM
GACAUGAGGAUCACCCAUGUACCGCGAGAAGGAGCGCGGAUAAACGCAGGUAGGUCGCUCGUGGGCUCACAUUCAAUUGUAAGCU [Digece]	17.5 nM	49.8 nM	58.3 nM	39.2 nM	31.6 nM
AAAGAUUCCUGAACGCCGCAUACCGAUGAUACCAGCCAACGGAAAGGCCCUUGGCAGCAUUAAACAUGAGGAUCACCCAUGUCUA [theeternabot_exclusion_MS2_Theo_A_43]	11.4 nM	15 nM	–	–	12.1 nM
ACAUGUUGGUGGUAUCUACGAAGGCGGAAACGAGGACCGGUACGGCCGCCACUCGGCGACAUGAGGAUCACCCAUGUGGUUAAGA [Exclusion - Tryptophan A (Freestyle 6)]	21.5 nM	118 nM	131 nM	–	–
CAUGGGUGGGUGCUGCCACCCAUUGGUGAUACCAGCAUCGAAAGAUGCCCUUGGCAGCACCAACAUGAGGAUCACCCAUGUAAUA [(M)'-(T)'-(M)''-(T1)-(T2)-(M1)-(M2)_Design4]	58.6 nM	145 nM	–	–	67.8 nM
AUACAUGAGGAUCACCCAUGUAUAGAUGAAGGAGCGACCAGAGGGUCAGGUAGGUCGCAUCACAUGAGGAUCACCCAUGUACUUA [DOUBLE!!! :-D #9]	27.1 nM	43.7 nM	42.7 nM	42.1 nM	41.5 nM
UUGGUACAUGAGGAUCACCCAUGUACUGAAGGAGCGGGACGAAUCUCAGGUAGGUCGCAGACAUGAGGAUCACCCAUGUAUGGCU [Exclusion Arginine A GF 17]	10.2 nM	14.6 nM	13.1 nM	12.7 nM	12.3 nM
AUGUCGUUGAAUACAGCGGCAUGGAGUGAUACCAGAAUGAUCAAAUUCCCUUGGCAGCAUCACAUGAGGAUCACCCAUGUUCGAU [SSTheo A #16]	22.2 nM	33.2 nM	–	–	40.9 nM
GUACCGUAAACGGCCGCCACUGACAUGAGGAUCACCCAUGUGCUGGUGGUGCACAACCUCAGGUUCAGGACCGGGUUUCCGAGCU [theeternabot_exclusion_MS2_Trp_B_50]	23 nM	45.3 nM	32.2 nM	–	–
UGUAUGGACUGAAGGAGCGGGUUGAUAACUUGAGGAUCACCCAGGUAAAAGGCGAAAGCCGCCCAGGUAGGUCGCAGUCCAUACU	40.2 nM	54.9 nM	61.7 nM	45.6 nM	49.2 nM
AAAAGUGGGUCAAUUAUUUAAACUUCAGAAGGAGCGUGAUGUUUCACAGGUAGGUCGCUGAUAACAUGAGGAUCACCCAUGUAUU [JR_ExcArginiA_Sub007]	30.8 nM	59.8 nM	54.4 nM	47.4 nM	47 nM
UCGUGUAUAACGGAUACCAGUGAGAAGGAUACAUGAGGAUCACCCAUGUGAGUUGAUCCACACCCUUGGCAGCUGUAUAUAUCUA [alamullin]	103 nM	468 nM	–	–	290 nM
AGCUCGCAUCCUCUAGCGUCAAAGACGCGUCGAGGACCGGUACGGCCGCCACUCGACUUGAGGAUCACCCAAGUCUAAGCGAGCA [TrypAX 11 #SwitchBubble #AlternativeMS2 #MS2Late #CuTurnoff]	54.8 nM	91.1 nM	215 nM	92.6 nM	488 nM
UUAUUUAUAAUGGAUACCAGUGCUGUGGCCCGGCAUCCUGACAUGAGGAUCACCCAUGUGUACCCUUGGCAGCUGUUAUGGGUUU [XTheo B #20]	20.7 nM	28.3 nM	–	–	19.3 nM
CCUGGACAUGAGGAUCACCCAUGUGAGGAUACCAGAUAUCCUGAUAUCCCUUGGCAGCCUCAUUACUUCGCAUUACCGAAACUUC [theeternabot_sameState_MS2_Theo_A_35]	31.1 nM	166 nM	–	–	57.1 nM
CAAUAUAUAGCGGCCGCCACUUACUCAUGAGGUAACAACAUGAGGAUCACCCAUGUUUGAGGAUCAAGGACCGGGCUAUAUAUUG [AstrosSSTryB#6]	22.2 nM	31.9 nM	32.2 nM	–	–
GCCUCCAGCCGAAGGAGCGCUAGAAGGUGACAUGAGGAUCACCCAUGUGUGUGAUGUGGCUAGCAGGUAGGUCGCGGAGGAGGUA [Exclusion - Arginine B (Freestyle 21)]	118 nM	134 nM	111 nM	99.7 nM	92 nM
AAUACCGGUCCUCGAAGGUGAUCCUCAUAACGAGGACCGGUACGGCCGCCACUCGAUAACAUGAGGAUCACCCAUGUAAUAAUAA [|T'-M'-Trp-Ms2|_Design6]	56.1 nM	175 nM	235 nM	–	–
AGGAAAACAUGAGCAAAGCUCAUGUGCGAAGGAGCGGCGGAAACGCCAGGUAGGUCGCGCACAUGAGCAUCAGCCAUGUGUAUCA [Omei Arginine B SS A v4]	39.5 nM	78.8 nM	409 nM	42.3 nM	31.6 nM
